The values that follow come from article PMC9482650, “Quantitative fragmentomics allow affinity mapping of interactomes” (Nature Communications, 2022).

Targets include TJP1_2, Q07157; HTRA1, Q92743; MAST1, Q9Y2H9; NOS1, P29475; AHNAK1, Q09666; PICK1, Q9NRD5; MAGI2_5, Q86UL8; NHERF4_2, Q86UT5; DLG1_3, Q12959; IL16_3, Q14005; PTPN3, P26045; DLG2_3, Q15700.
What all share (assay): holdup assay
What all share (set-up): key: below the threshold = too weak to quantify, mostly under pKd 3.1 to 4
What all share (conditions): plain residues with an end cap or a label only (N-terminal biotin on a linker: ado-ado)

In another experiment the target is T1, DLG3_1, Q92796.
T1 sequence (Q92796 125-227, limits assumed, looked up): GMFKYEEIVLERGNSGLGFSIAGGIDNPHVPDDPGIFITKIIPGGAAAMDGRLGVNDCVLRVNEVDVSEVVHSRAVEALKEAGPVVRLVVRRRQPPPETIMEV

Another experiment has as its target T2, APBA3_1, O96018.
T2 sequence (O96018 389-490, limits assumed, looked up): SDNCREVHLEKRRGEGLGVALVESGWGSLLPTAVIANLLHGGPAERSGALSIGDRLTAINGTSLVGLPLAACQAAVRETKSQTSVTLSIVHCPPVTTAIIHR

The target in a further experiment is T3, MPDZ_12, O75970.
T3 sequence (O75970 1857-1958, limits assumed, looked up): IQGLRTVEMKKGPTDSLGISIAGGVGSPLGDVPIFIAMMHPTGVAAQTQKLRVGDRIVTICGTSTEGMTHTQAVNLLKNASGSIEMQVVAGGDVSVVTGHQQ

The target of a further experiment is T4, TX1BP3, O14907.
T4 sequence (O14907 10-122, limits assumed, looked up): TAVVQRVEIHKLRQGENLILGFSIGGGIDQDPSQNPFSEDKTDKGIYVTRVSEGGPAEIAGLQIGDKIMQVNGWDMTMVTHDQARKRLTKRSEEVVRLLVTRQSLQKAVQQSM

A further experiment deals with T5, LIN7A, O14910.
T5 sequence (O14910 103-200, limits assumed, looked up): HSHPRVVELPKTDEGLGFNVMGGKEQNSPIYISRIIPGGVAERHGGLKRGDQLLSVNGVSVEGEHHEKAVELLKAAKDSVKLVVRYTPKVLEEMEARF

The target in a further experiment is T6, NHERF3_4, Q5T2W1.
T6 sequence (Q5T2W1 373-468, limits assumed, looked up): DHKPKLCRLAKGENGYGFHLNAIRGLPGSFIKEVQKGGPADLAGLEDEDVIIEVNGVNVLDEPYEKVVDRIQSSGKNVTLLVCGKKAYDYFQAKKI

In a further experiment the target is T7, PDZRN3_1, Q9UPQ7.
T7 sequence (Q9UPQ7 244-349, limits assumed, looked up): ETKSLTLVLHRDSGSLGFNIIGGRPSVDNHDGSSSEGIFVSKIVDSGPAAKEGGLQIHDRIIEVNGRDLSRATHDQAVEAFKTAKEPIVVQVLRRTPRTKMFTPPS

Another experiment deals with T8, MPDZ_10, O75970.
T8 sequence (O75970 1624-1722, limits assumed, looked up): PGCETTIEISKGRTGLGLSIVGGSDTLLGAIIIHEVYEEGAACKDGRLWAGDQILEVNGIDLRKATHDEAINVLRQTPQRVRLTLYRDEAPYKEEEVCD

A further experiment deals with T9, ARHGEF11, O15085.
T9 sequence (O15085 42-136, limits assumed, looked up): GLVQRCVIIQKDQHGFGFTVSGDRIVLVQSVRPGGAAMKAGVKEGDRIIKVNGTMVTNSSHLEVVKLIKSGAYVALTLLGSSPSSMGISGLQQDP

The next experiment concerns the target T10, MPDZ_5, O75970.
T10 sequence (O75970 695-796, limits assumed, looked up): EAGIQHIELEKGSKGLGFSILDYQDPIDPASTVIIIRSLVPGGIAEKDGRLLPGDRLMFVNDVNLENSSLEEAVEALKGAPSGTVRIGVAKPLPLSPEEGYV

A further experiment concerns the target T11, LRRC7, Q96NW7.
T11 sequence (Q96NW7 1440-1537, limits assumed, looked up): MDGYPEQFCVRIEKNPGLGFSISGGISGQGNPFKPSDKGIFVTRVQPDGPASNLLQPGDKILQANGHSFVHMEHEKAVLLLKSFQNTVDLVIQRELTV

In a further experiment the target is T12, DFNB31_3, Q9P202.
T12 sequence (Q9P202 811-907, limits assumed, looked up): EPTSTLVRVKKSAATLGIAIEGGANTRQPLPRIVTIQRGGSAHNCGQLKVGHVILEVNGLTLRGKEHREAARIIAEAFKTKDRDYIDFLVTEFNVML

NHERF4_2, Q86UT5, sequence (Q86UT5 220-308): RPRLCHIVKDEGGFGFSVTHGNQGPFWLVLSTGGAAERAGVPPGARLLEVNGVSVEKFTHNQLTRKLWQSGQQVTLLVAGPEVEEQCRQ
MAST1, Q9Y2H9, sequence (Q9Y2H9 962-1065): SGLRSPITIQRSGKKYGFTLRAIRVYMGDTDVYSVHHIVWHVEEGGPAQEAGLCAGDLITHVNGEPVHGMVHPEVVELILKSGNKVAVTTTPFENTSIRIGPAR
DLG1_3, Q12959, sequence (Q12959 457-571): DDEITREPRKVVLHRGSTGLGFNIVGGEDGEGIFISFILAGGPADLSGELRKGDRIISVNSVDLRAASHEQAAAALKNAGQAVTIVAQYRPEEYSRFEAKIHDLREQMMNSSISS
TJP1_2, Q07157, sequence (Q07157 181-274): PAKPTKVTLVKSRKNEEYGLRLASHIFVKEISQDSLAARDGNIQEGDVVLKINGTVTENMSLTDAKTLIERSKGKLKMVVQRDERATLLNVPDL
HTRA1, Q92743, sequence (Q92743 360-477): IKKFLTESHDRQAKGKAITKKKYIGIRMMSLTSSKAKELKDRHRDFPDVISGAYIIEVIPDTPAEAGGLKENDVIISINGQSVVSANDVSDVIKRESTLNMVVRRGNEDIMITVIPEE
PTPN3, P26045, sequence (P26045 505-587): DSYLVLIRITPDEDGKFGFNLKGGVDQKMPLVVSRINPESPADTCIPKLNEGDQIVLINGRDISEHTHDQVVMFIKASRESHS
MAGI2_5, Q86UL8, sequence (Q86UL8 915-1017): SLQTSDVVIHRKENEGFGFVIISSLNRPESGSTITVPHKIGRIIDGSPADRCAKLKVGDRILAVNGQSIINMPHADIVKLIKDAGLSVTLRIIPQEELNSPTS
PICK1, Q9NRD5, sequence (Q9NRD5 17-115): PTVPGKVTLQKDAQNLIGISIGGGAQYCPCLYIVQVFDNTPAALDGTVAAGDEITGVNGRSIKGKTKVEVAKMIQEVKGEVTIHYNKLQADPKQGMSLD
NOS1, P29475, sequence (P29475 9-101): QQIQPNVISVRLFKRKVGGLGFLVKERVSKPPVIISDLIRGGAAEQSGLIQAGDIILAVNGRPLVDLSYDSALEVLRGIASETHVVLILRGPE
AHNAK1, Q09666, sequence (Q09666 4-100): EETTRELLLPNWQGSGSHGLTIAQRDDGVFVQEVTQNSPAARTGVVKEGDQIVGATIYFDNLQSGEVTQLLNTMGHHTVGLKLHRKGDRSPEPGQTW
IL16_3, Q14005, sequence (Q14005 1107-1207): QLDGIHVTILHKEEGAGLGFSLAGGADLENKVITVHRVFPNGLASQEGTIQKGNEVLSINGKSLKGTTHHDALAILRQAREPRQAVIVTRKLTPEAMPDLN

In the case of HLSTRQGTCV [ATRNL1, Q5VV63], the pKd (commonly the Kd on a negative log10 scale, so that one unit is a factor of ten) was 3.84 with DLG3_1, Q92796; “below the threshold” with APBA3_1, O96018; 3.67 with MPDZ_12, O75970; “below the threshold” in the experiment with TJP1_2, Q07157; 4.91 with HTRA1, Q92743; 4.35 with MAST1, Q9Y2H9. The pKd result was “below the threshold” with TX1BP3, O14907; “below the threshold” in the experiment with LIN7A, O14910; 4.07 in the experiment with NOS1, P29475; “below the threshold” with NHERF3_4, Q5T2W1; “below the threshold” with AHNAK1, Q09666; 3.97 in the experiment with PDZRN3_1, Q9UPQ7. Besides, the negative-log Kd (pKd) result is “below the threshold” in the experiment with PICK1, Q9NRD5; 3.75 in the experiment with MPDZ_10, O75970; 4.04 with MAGI2_5, Q86UL8; “below the threshold” with NHERF4_2, Q86UT5; 4.02 with ARHGEF11, O15085; 3.58 with DLG1_3, Q12959. Further, the pKd result was “below the threshold” with IL16_3, Q14005; 3.66 in the experiment with MPDZ_5, O75970; 3.63 with LRRC7, Q96NW7; 4.54 with PTPN3, P26045; “below the threshold” in the experiment with DFNB31_3, Q9P202; 4.19 with DLG2_3, Q15700.

Turning to SSSVNVSSNL [CXCR1, P25024], the pKd result in the experiment with DLG3_1, Q92796 was “below the threshold”; with APBA3_1, O96018 it was “below the threshold”; with MPDZ_12, O75970, “below the threshold”; in the experiment with TJP1_2, Q07157, “below the threshold”; with HTRA1, Q92743, “below the threshold”; in the experiment with MAST1, Q9Y2H9, 4.45. The negative logarithm of the Kd (pKd) in the experiment with TX1BP3, O14907 was 3.84; in the experiment with LIN7A, O14910, “below the threshold”; with NOS1, P29475 it was “below the threshold”; with NHERF3_4, Q5T2W1, “below the threshold”; in the experiment with AHNAK1, Q09666, “below the threshold”; in the experiment with PDZRN3_1, Q9UPQ7, “below the threshold”. Further, the negative logarithm of the Kd (pKd) was 4.12 with PICK1, Q9NRD5; “below the threshold” with MPDZ_10, O75970; “below the threshold” with MAGI2_5, Q86UL8; “below the threshold” with NHERF4_2, Q86UT5; 3.75 with ARHGEF11, O15085; “below the threshold” in the experiment with DLG1_3, Q12959. The negative logarithm of the Kd (pKd) entry with IL16_3, Q14005 was “below the threshold”; with MPDZ_5, O75970, “below the threshold”; with LRRC7, Q96NW7, “below the threshold”; with PTPN3, P26045 it was 4.48; with DFNB31_3, Q9P202 it was 4.18; with DLG2_3, Q15700 it was “below the threshold”.

As for HYPASPDSWV [CTNND2, Q9UQB3], the pKd in the experiment with DLG3_1, Q92796 was 3.99; with APBA3_1, O96018 it was “below the threshold”; with MPDZ_12, O75970, 4.65; with TJP1_2, Q07157 it was 4.19; with HTRA1, Q92743, 4.71; in the experiment with MAST1, Q9Y2H9 it was 3.9. Besides, the negative logarithm of the Kd (pKd) with TX1BP3, O14907 was 5.15; with LIN7A, O14910, “below the threshold”; with NOS1, P29475, 3.86; with NHERF3_4, Q5T2W1, “below the threshold”; in the experiment with AHNAK1, Q09666, “below the threshold”; with PDZRN3_1, Q9UPQ7 it was 3.83. The pKd with PICK1, Q9NRD5 was 4.17; with MPDZ_10, O75970, “below the threshold”; with MAGI2_5, Q86UL8, “below the threshold”; with NHERF4_2, Q86UT5, 3.55; with ARHGEF11, O15085, 3.68; with DLG1_3, Q12959 it was “below the threshold”. Also, the negative-log Kd (pKd) entry was “below the threshold” with IL16_3, Q14005; “below the threshold” with MPDZ_5, O75970; 4.97 with LRRC7, Q96NW7; 5.07 with PTPN3, P26045; “below the threshold” in the experiment with DFNB31_3, Q9P202; “below the threshold” in the experiment with DLG2_3, Q15700.

Turning to LLQEEWETVM [PTH1R, Q03431], the negative-log Kd (pKd) entry with DLG3_1, Q92796 is “below the threshold”; in the experiment with APBA3_1, O96018, “below the threshold”; with MPDZ_12, O75970, “below the threshold”; with TJP1_2, Q07157, “below the threshold”; with HTRA1, Q92743, 4.68; with MAST1, Q9Y2H9 it was 5.01. Further, the pKd result in the experiment with TX1BP3, O14907 is “below the threshold”; with LIN7A, O14910, “below the threshold”; in the experiment with NOS1, P29475, “below the threshold”; with NHERF3_4, Q5T2W1 it was 4.64; in the experiment with AHNAK1, Q09666, “below the threshold”; with PDZRN3_1, Q9UPQ7, 3.83. Besides, the negative-log Kd (pKd) with PICK1, Q9NRD5 is 4.22; in the experiment with MPDZ_10, O75970, “below the threshold”; with MAGI2_5, Q86UL8, 4.4; with NHERF4_2, Q86UT5 it was “below the threshold”; with ARHGEF11, O15085, 3.81; with DLG1_3, Q12959 it was “below the threshold”. The pKd entry in the experiment with IL16_3, Q14005 was “below the threshold”; with MPDZ_5, O75970 it was “below the threshold”; with LRRC7, Q96NW7, “below the threshold”; with PTPN3, P26045, 4.92; with DFNB31_3, Q9P202 it was 4.17; with DLG2_3, Q15700, “below the threshold”.

For NNMAFETTHF [SLC5A12, Q1EHB4], the pKd entry in the experiment with DLG3_1, Q92796 is “below the threshold”; in the experiment with APBA3_1, O96018, “below the threshold”; in the experiment with MPDZ_12, O75970, “below the threshold”; with TJP1_2, Q07157, “below the threshold”; in the experiment with HTRA1, Q92743, 3.62; with MAST1, Q9Y2H9, 4.77. Besides, the pKd is 3.93 in the experiment with TX1BP3, O14907; 3.74 in the experiment with LIN7A, O14910; “below the threshold” in the experiment with NOS1, P29475; 4.57 with NHERF3_4, Q5T2W1; “below the threshold” in the experiment with AHNAK1, Q09666; “below the threshold” in the experiment with PDZRN3_1, Q9UPQ7. In addition, the pKd result with PICK1, Q9NRD5 is “below the threshold”; with MPDZ_10, O75970, “below the threshold”; with MAGI2_5, Q86UL8, 4.1; with NHERF4_2, Q86UT5, “below the threshold”; in the experiment with ARHGEF11, O15085 it was 3.63; with DLG1_3, Q12959 it was “below the threshold”. In addition, the negative logarithm of the Kd (pKd) entry with IL16_3, Q14005 was “below the threshold”; with MPDZ_5, O75970, “below the threshold”; with LRRC7, Q96NW7, “below the threshold”; with PTPN3, P26045, “below the threshold”; with DFNB31_3, Q9P202, 3.78; with DLG2_3, Q15700, 3.7.
